In publication PMC9157081:

T1: His-E1 (Glycine max, UniProt I2FKG6 1-174)
T1 sequence: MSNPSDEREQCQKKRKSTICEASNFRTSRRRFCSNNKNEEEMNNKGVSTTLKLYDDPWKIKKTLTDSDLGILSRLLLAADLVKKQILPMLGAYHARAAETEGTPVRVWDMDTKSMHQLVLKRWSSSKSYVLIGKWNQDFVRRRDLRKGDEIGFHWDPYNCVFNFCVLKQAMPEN


Target: T1, His-E1
Assay: EMSA

| Binder | binding result |
| --- | --- |
| GsWRKY20 Probe5 (dsDNA) DNA 1: TTTTTAATTTGTTAACTCGTTGACTCAGTGGTAAACTCGAAAGTC DNA 2: GACTTTCGAGTTTACCACTGAGTCAACGAGTTAACAAATTAAAAA | binds |
| Probe3 (dsDNA) DNA 1: AGTTGATCAGCCCGAAATACTGCATGCACCTCACAAATTGACAAGTGCTT DNA 2: AAGCACTTGTCAATTTGTGAGGTGCATGCAGTATTTCGGGCTGATCAACT | binds |
| GmMDE06 Probe1 (dsDNA) DNA 1: TAAAGTATAAGTTTACTAATGGAGTCCATGAGTTAAATTTATAAAACTCT DNA 2: AGAGTTTTATAAATTTAACTCATGGACTCCATTAGTAAACTTATACTTTA | binds |
| Probe4 (dsDNA) DNA 1: AGTCTTTGTTCTTACATGAGAAACACATGTATTTTTTTTATAGACATTAT DNA 2: ATAATGTCTATAAAAAAAATACATGTGTTTCTCATGTAAGAACAAAGACT | binds |
| GmMDE06 Probe2 (dsDNA) DNA 1: GAATCAAGGGGTGAGACTCACGGTCATGACTCATGTAAATTCGTCTCCCA DNA 2: TGGGAGACGAATTTACATGAGTCATGACCGTGAGTCTCACCCCTTGATTC | binds |
